Experimental data taken from article PMC11151092 (Molecular Biology of the Cell, 2024).

T1: Qa-SNARE Vam3 in proteoliposomes (S. cerevisiae, UniProt Q12241 1-283)
T1 sequence: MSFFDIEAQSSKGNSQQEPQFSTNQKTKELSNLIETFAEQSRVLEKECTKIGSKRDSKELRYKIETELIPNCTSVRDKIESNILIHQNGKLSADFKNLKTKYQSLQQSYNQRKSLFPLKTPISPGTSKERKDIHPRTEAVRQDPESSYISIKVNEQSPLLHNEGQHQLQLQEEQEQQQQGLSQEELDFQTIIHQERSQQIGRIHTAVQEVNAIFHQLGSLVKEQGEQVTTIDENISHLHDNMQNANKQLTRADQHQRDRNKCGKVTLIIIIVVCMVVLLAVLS

B1: 3Q-SNARE complex (QaQbQc) on proteoliposomes (complex)
chain 1: MSFFDIEAQSSKGNSQQEPQFSTNQKTKELSNLIETFAEQSRVLEKECTKIGSKRDSKELRYKIETELIPNCTSVRDKIESNILIHQNGKLSADFKNLKTKYQSLQQSYNQRKSLFPLKTPISPGTSKERKDIHPRTEAVRQDPESSYISIKVNEQSPLLHNEGQHQLQLQEEQEQQQQGLSQEELDFQTIIHQERSQQIGRIHTAVQEVNAIFHQLGSLVKEQGEQVTTIDENISHLHDNMQNANKQLTRADQHQRDRNKCGKVTLIIIIVVCMVVLLAVLS
chain 2: MSSLLISYESDFKTTLEQAKASLAEAPSQPLSQRNTTLKHVEQQQDELFDLLDQMDVEVNNSIGDASERATYKAKLREWKKTIQSDIKRPLQSLVDSGDRDRLFGDLNASNIDDDQRQQLLSNHAILQKSGDRLKDASRIANETEGIGSQIMMDLRSQRETLENARQTLFQADSYVDKSIKTLKTMTRRLVANKFISYAIIAVLILLILLVLFSKFK
chain 3: MAANSVGKMSEKLRIKVDDVKINPKYVLYGVSTPNKRLYKRYSEFWKLKTRLERDVGSTIPYDFPEKPGVLDRRWQRRYDDPEMIDERRIGLERFLNELYNDRFDSRWRDTKIAQDFLQLSKPNVSQEKSQQHLETADEVGWDEMIRDIKLDLDKESDGTPSVRGALRARTKLHKLRERLEQDVQKKSLPSTEVTRRAALLRSLLKECDDIGTANIAQDRGRLLGVATSDNSSTTEVQGRTNNDLQQGQMQMVRDQEQELVALHRIIQAQRGLALEMNEELQTQNELLTALEDDVDNTGRRLQIANKKARHFNNSA

Experiments:
[1] = molecular target: HOPS (homotypic fusion and vacuole protein sorting complex) (S. cerevisiae, UniProt P12868;Q03308;P27801;P20795;Q07468;P38959); assay: proteoliposome floatation
[2] = molecular target: four-SNARE bundle with GST-Qa (GST-Qa, R, Qb, Qc) in detergent (S. cerevisiae, UniProt Q12241;Q12255;Q04338;P32912); assay: pull-down
[3] = molecular target: B1; assay: proteoliposome floatation
[4] = molecular target: 4-SNARE complex (R, Qa, Qb, Qc) on proteoliposomes (S. cerevisiae, UniProt Q12255;Q12241;Q04338;P32912); assay: proteoliposome floatation
[5] = molecular target: T1, Qa-SNARE Vam3 in proteoliposomes; assay: co-IP

binding result [1]	binding result [2]	binding result [3]	binding result [4]	binding result [5]	Binder
binds					B1
	binds				Sec17 (natural protein) MSDPVELLKRAEKKGVPSSGFMKLFSGSDSYKFEEAADLCVQAATIYRLRKELNLAGDSFLKAADYQKKAGNEDEAGNTYVEAYKCFKSGGNSVNAVDSLENAIQIFTHRGQFRRGANFKFELGEILENDLHDYAKAIDCYELAGEWYAQDQSVALSNKCFIKCADLKALDGQYIEASDIYSKLIKSSMGNRLSQWSLKDYFLKKGLCQLAATDAVAAARTLQEGQSEDPNFADSRESNFLKSLIDAVNEGDSEQLSEHCKEFDNFMRLDKWKITILNKIKESIQQQEDDLL
binds	binds	binds	binds		Sec18 (enzyme) MFKIPGFGKAAANHTPPDMTNMDTRTRHLKVSNCPNNSYALANVAAVSPNDFPNNIYIIIDNLFVFTTRHSNDIPPGTIGFNGNQRTWGGWSLNQDVQAKAFDLFKYSGKQSYLGSIDIDISFRARGKAVSTVFDQDELAKQFVRCYESQIFSPTQYLIMEFQGHFFDLKIRNVQAIDLGDIEPTSAVATGIETKGILTKQTQINFFKGRDGLVNLKSSNSLRPRSNAVIRPDFKFEDLGVGGLDKEFTKIFRRAFASRIFPPSVIEKLGISHVKGLLLYGPPGTGKTLIARKIGTMLNAKEPKIVNGPEILSKYVGSSEENIRNLFKDAEAEYRAKGEESSLHIIIFDELDSVFKQRGSRGDGTGVGDNVVNQLLAKMDGVDQLNNILVIGMTNRKDLIDSALLRPGRFEVQVEIHLPDEKGRLQIFDIQTKKMRENNMMSDDVNLAELAALTKNFSGAEIEGLVKSASSFAINKTVNIGKGATKLNTKDIAKLKVTREDFLNALNDVTPAFGISEEDLKTCVEGGMMLYSERVNSILKNGARYVRQVRESDKSRLVSLLIHGPAGSGKTALAAEIALKSGFPFIRLISPNELSGMSESAKIAYIDNTFRDAYKSPLNILVIDSLETLVDWVPIGPRFSNNILQMLKVALKRKPPQDRRLLIMTTTSAYSVLQQMDILSCFDNEIAVPNMTNLDELNNVMIESNFLDDAGRVKVINELSRSCPNFNVGIKKTLTNIETARHDEDPVNELVELMTQSA
binds				binds	R-SNARE Nyv1 (natural protein) MKRFNVSYVEVIKNGETISSCFQPFQKNENYGTITSANEQITPVIFHNLIMDMVLPKVVPIKGNKVTKMSMNLIDGFDCFYSTDDHDPKTVYVCFTLVDMPKILPIRILSGLQEYESNATNELLSSHVGQILDSFHEELVEYRNQTLNSSGNGQSSNGNGQNTISDIGDATEDQIKDVIQIMNDNIDKFLERQERVSLLVDKTSQLNSSSNKFRRKAVNIKEIMWWQKVKNITLLTFTIILFVSAAFMFFYLW
